According to patent US20230212549A1 (3B PHARMACEUTICALS, published 2023):
Numbered stars: 1 amine (or outer) side, 2 acyl side, 3 side chain; on linkers, the order of the positions; unused ones are H or OH. Bridge positions count the residues as written; N and C are the ends. Square brackets hold non-standard residues; d marks the D form. Primed or numbered codes have the meaning given here. * marks the point of attachment. tMeBn(DOTA-PP) = 1,3,5-trimethylbenzylidene, two thioethers to Cys, third CH2 bound to one N of piperazine whose other N bears DOTA, O=C(O)CN1CCN(CC(=O)O)CCN(CC(=O)N2CCN(Cc3cc(C[*:1])cc(C[*:2])c3)CC2)CCN(CC(=O)O)CC1; Ttds″ = 1,13-diamino-4,7,10-trioxatridecan-succinamic acid spacer, O=C(CCC(=O)[*:2])NCCCOCCOCCOCCCN[*:1]; Ttds = 1,13-diamino-4,7,10-trioxatridecan-succinamic acid, O=C(CCC(=O)[*:2])NCCCOCCOCCOCCCN[*:1]; DOTA = O=C(O)CN1CCN(CC(=O)O)CCN(CC(=O)*)CCN(CC(=O)O)CC1; mXylylene = c1cc(C[*:1])cc(C[*:2])c1; NMeF = CN[C@@H](Cc1ccccc1)C(=O)O; 4Amb = NCc1ccc(C(=O)O)cc1; Nle = CCCC[C@H](N)C(=O)O; Hexanoyl = CCCCCC(=O)*

T1: recombinant human PREP (R&D systems, #4308-SE) (human, UniProt P48147 1-710)
T1 sequence: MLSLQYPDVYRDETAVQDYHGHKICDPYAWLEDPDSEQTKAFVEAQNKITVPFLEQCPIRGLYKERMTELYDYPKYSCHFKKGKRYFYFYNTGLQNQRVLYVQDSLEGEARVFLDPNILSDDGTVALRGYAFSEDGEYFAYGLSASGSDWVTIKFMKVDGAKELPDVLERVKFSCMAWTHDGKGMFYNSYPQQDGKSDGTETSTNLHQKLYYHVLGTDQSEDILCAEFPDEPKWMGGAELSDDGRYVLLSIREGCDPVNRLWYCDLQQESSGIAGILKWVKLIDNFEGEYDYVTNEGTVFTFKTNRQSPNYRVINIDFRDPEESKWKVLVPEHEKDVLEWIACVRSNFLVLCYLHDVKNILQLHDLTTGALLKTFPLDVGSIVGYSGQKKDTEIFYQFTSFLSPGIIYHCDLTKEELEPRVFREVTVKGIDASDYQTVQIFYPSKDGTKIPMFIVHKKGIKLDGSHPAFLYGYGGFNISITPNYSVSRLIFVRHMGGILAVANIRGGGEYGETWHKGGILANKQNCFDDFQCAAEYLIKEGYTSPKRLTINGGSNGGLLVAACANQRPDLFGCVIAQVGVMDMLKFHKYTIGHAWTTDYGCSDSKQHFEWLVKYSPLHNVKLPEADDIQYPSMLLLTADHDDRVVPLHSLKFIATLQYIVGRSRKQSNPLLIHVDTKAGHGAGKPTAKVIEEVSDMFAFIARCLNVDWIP

B1: Hex-[Cys(tMeBn(DOTA-PP))-Pro-Pro-Thr-Gln-Phe-Cys]-Asp-NH2 (peptide)
peptide: Hexanoyl-CPPTQFCD-NH2
modifications: linker 1-7 via tMeBn(DOTA-PP)
SMILES: CCCCCC(=O)N[C@H]1CSCc2cc(cc(CN3CCN(C(=O)CN4CCN(CC(=O)O)CCN(CC(=O)O)CCN(CC(=O)O)CC4)CC3)c2)CSC[C@@H](C(=O)N[C@@H](CC(=O)O)C(N)=O)NC(=O)[C@H](Cc2ccccc2)NC(=O)[C@H](CCC(N)=O)NC(=O)[C@H]([C@@H](C)O)NC(=O)[C@@H]2CCCN2C(=O)[C@@H]2CCCN2C1=O
B2: DOTA-Ttds-Nle-[Cys(3MeBn)-Pro-Pro-Thr-Glu-Phe-Cys]-Asp-Pamb-Arg-NH2 (peptide)
peptide: {DOTA}-[Ttds][Nle]CPPTEFCD[4Amb]R-NH2
modifications: linker 3-9 via mXylylene
SMILES: CCCC[C@H](NC(=O)CCC(=O)NCCCOCCOCCOCCCNC(=O)CN1CCN(CC(=O)O)CCN(CC(=O)O)CCN(CC(=O)O)CC1)C(=O)N[C@H]1CSCc2cccc(c2)CSC[C@@H](C(=O)N[C@@H](CC(=O)O)C(=O)NCc2ccc(C(=O)N[C@@H](CCCNC(=N)N)C(N)=O)cc2)NC(=O)[C@H](Cc2ccccc2)NC(=O)[C@H](CCC(=O)O)NC(=O)[C@H]([C@@H](C)O)NC(=O)[C@@H]2CCCN2C(=O)[C@@H]2CCCN2C1=O
notes: also called 3BP-3321
B3: Hex-[Cys(3MeBn)-Pro-Pro-Thr-Gln-Phe-Cys]-Asp-NH2 (peptide)
peptide: Hexanoyl-CPPTQFCD-NH2
modifications: linker 1-7 via mXylylene
SMILES: CCCCCC(=O)N[C@H]1CSCc2cccc(c2)CSC[C@@H](C(=O)N[C@@H](CC(=O)O)C(N)=O)NC(=O)[C@H](Cc2ccccc2)NC(=O)[C@H](CCC(N)=O)NC(=O)[C@H]([C@@H](C)O)NC(=O)[C@@H]2CCCN2C(=O)[C@@H]2CCCN2C1=O
B4: Hex-[Cys(3MeBn)-Pro-Pro-Thr-Glu-Phe-Cys]-Asp-His-Nmf-Arg-Ttds-Lys(DOTA)-NH2 (peptide)
peptide: Hexanoyl-CPPTEFCDH[NMeF]R[Ttds″]K(DOTA)-NH2
modifications: linker 1-7 via mXylylene
SMILES: CCCCCC(=O)N[C@H]1CSCc2cccc(c2)CSC[C@@H](C(=O)N[C@@H](CC(=O)O)C(=O)N[C@@H](Cc2c[nH]cn2)C(=O)N(C)[C@@H](Cc2ccccc2)C(=O)N[C@@H](CCCNC(=N)N)C(=O)NCCCOCCOCCOCCCNC(=O)CCC(=O)N[C@@H](CCCCNC(=O)CN2CCN(CC(=O)O)CCN(CC(=O)O)CCN(CC(=O)O)CC2)C(N)=O)NC(=O)[C@H](Cc2ccccc2)NC(=O)[C@H](CCC(=O)O)NC(=O)[C@H]([C@@H](C)O)NC(=O)[C@@H]2CCCN2C(=O)[C@@H]2CCCN2C1=O
notes: also called 3BP-3275
B5: DOTA-Ttds-Nle-[Cys(3MeBn)-Pro-Pro-Thr-Glu-Phe-Cys]-Asp-NH2 (peptide)
peptide: {DOTA}-[Ttds][Nle]CPPTEFCD-NH2
modifications: linker 3-9 via mXylylene
SMILES: CCCC[C@H](NC(=O)CCC(=O)NCCCOCCOCCOCCCNC(=O)CN1CCN(CC(=O)O)CCN(CC(=O)O)CCN(CC(=O)O)CC1)C(=O)N[C@H]1CSCc2cccc(c2)CSC[C@@H](C(=O)N[C@@H](CC(=O)O)C(N)=O)NC(=O)[C@H](Cc2ccccc2)NC(=O)[C@H](CCC(=O)O)NC(=O)[C@H]([C@@H](C)O)NC(=O)[C@@H]2CCCN2C(=O)[C@@H]2CCCN2C1=O
notes: also called 3BP-3320
B6: Hex-[Cys(tMeBn(DOTA-AET))-Pro-Pro-Thr-Gln-Phe-Cys]-OH (peptide)
peptide: Hexanoyl-CPPTQFC-OH
modifications: bridge 1-7; not fully specified (bridges); printed as Hex-[Cys(tMeBn(DOTA-AET))-Pro-Pro-Thr-Gln-Phe-Cys]-OH; also: DOTA-AET attached to tMeBn scaffold

These binders were tested against T2, Recombinant human FAP (R&D systems, #3715-SE) (human, UniProt Q12884 26-760) (assay: SPR (Biacore T200), FAP captured on anti-FAP antibody, single cycle kinetics).
T2 construct: bought; in SPR captured on immobilized anti-FAP antibody MAB3715; also called rhFAP; human recombinant FAP
T2 sequence (Q12884 26-760 limits assumed): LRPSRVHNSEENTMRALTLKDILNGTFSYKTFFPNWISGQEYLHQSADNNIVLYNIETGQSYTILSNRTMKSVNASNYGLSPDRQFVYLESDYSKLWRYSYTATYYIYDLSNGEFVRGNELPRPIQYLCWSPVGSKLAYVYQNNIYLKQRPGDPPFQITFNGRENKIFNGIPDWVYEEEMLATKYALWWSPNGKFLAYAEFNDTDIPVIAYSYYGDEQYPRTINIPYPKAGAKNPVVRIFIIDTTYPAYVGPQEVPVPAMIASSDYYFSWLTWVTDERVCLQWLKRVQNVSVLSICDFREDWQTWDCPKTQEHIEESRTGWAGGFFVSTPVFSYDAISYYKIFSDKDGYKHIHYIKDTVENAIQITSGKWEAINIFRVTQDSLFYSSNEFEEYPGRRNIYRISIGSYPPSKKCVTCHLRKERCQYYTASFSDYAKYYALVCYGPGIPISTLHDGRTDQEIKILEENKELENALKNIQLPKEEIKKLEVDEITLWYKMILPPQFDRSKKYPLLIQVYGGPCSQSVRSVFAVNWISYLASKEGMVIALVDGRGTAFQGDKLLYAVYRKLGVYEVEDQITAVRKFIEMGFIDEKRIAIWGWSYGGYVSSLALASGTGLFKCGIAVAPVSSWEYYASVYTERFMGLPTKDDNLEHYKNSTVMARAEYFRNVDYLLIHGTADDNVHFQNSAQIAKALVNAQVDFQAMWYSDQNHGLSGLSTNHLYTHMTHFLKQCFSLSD

Binder | pKD Category [pKD]
B1 | > 8
B2 | > 8
Hexanoyl-CPPTQFCD-NH2 (linker 1-7 via tMeBn(DOTA-AET), also called 3BP-3426) [Hex-[Cys(tMeBn(DOTA-AET))-Pro-Pro-Thr-Gln-Phe-Cys]-Asp-NH2] | > 8
B3 | > 8
B4 | > 8
B5 | > 8

The binders below were run against Recombinant human DPP4 (R&D systems, #9168-SE) (human, UniProt P27487 29-766) (assay: cell-based or functional assay).
Sequence of Recombinant human DPP4 (R&D systems, #9168-SE) (P27487 29-766 limits assumed): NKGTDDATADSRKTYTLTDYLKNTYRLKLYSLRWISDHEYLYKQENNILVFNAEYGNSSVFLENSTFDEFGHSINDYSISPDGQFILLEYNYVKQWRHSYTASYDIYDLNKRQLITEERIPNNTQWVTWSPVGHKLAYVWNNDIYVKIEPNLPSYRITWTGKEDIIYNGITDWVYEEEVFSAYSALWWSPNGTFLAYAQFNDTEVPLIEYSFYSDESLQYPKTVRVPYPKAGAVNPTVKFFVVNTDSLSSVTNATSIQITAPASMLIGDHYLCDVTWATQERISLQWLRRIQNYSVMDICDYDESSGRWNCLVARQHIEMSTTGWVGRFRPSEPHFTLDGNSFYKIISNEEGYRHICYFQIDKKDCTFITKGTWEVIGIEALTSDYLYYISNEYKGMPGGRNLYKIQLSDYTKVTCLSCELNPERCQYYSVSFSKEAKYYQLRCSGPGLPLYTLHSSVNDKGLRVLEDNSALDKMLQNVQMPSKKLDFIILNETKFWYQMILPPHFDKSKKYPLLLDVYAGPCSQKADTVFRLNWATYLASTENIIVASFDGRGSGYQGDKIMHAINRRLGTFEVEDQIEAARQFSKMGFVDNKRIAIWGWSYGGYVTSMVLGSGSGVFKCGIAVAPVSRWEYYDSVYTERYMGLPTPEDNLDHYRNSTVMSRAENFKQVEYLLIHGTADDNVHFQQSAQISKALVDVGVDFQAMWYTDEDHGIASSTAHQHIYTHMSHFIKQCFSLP

Binder | pIC50 (DPP4) [pIC50]
B1 | < 6
B2 | < 6
B6 | < 6
Hexanoyl-CPPTQFCD-NH2 (linker 1-7 via tMeBn(DOTA-AET), also called 3BP-3426) [Hex-[Cys(tMeBn(DOTA-AET))-Pro-Pro-Thr-Gln-Phe-Cys]-Asp-NH2] | < 6
B3 | < 6
B4 | < 6
B5 | < 6
Hexanoyl-CPPTQFC-NH2 (linker 1-7 via mXylylene) [Hex-[Cys(3MeBn)-Pro-Pro-Thr-Gln-Phe-Cys]-NH2] | < 6

The binders below were run against T1, recombinant human PREP (R&D systems, …) (assay: cell-based or functional assay).

Binder | pIC50 (PREP) [pIC50]
B1 | < 6
B2 | < 6
B6 | < 6
Hexanoyl-CPPTQFCD-NH2 (linker 1-7 via tMeBn(DOTA-AET), also called 3BP-3426) [Hex-[Cys(tMeBn(DOTA-AET))-Pro-Pro-Thr-Gln-Phe-Cys]-Asp-NH2] | < 6
B3 | < 6
B4 | < 6
B5 | < 6
Hexanoyl-CPPTQFC-NH2 (linker 1-7 via mXylylene) [Hex-[Cys(3MeBn)-Pro-Pro-Thr-Gln-Phe-Cys]-NH2] | < 6
